Results from the supplement of paper PMC10567573.

B1: KCNAB2 (parent)
chain: IPPYSRASLKGYQWLKDKILSEEG

Variants of: B1
Experiment: protein stability index of a GFP-peptide fusion (GPS, HEK-293T) (PSI 1-6); higher = more stable
Conditions: c terminus: a fixed tail appended
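Further: lentivirally expressed fusions sorted by FACS into six bins by GFP to DsRed ratio, PSI derived from sequencing read proportions per bin multiplied by bin number.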

In order of falling protein stability index:
1. IPPDSRASLKGYQWLKDKILSEEG  4.41
2. IPPESRASLKGYQWLKDKILSEEG  4.16
3. IPPYSRASSKGYQWLKDKILSEEG  3.84
4. IPPYSRASLPGYQWLKDKILSEEG  3.76
5. IPPYSRASLEGYQWLKDKILSEEG  3.57
6. IPPYSRASLDGYQWLKDKILSEEG  3.49
7. IVPYSRASLKGYQWLKDKILSEEG  3.44
8. IPPYSRASLTGYQWLKDKILSEEG  3.38
9. IPPYSRASLSGYQWLKDKILSEEG  3.34
10. IPPYSRASRKGYQWLKDKILSEEG  3.33
11. IPPYSRSSLKGYQWLKDKILSEEG  3.32
12. IPPYSRASLQGYQWLKDKILSEEG  3.27
13. IPPYSRASPKGYQWLKDKILSEEG  3.25
14. IPPYSRLSLKGYQWLKDKILSEEG  3.23
15. IPPYSRASGKGYQWLKDKILSEEG  3.22
16. IPPYSRASEKGYQWLKDKILSEEG  3.2
17. IPPYSRDSLKGYQWLKDKILSEEG  3.15
18. IPPYSRASNKGYQWLKDKILSEEG  3.15
19. IPPYSRASTKGYQWLKDKILSEEG  3.14
20. IPPYSRAHLKGYQWLKDKILSEEG  2.97
21. IPPQSRASLKGYQWLKDKILSEEG  2.96
22. IQPYSRASLKGYQWLKDKILSEEG  2.92
23. IPPSSRASLKGYQWLKDKILSEEG  2.92
24. IPPYSRASLHGYQWLKDKILSEEG  2.91
25. IPPYSRASLGGYQWLKDKILSEEG  2.88
26. IEPYSRASLKGYQWLKDKILSEEG  2.87
27. IPPYSRESLKGYQWLKDKILSEEG  2.86
28. IPPYSRASLYGYQWLKDKILSEEG  2.84
29. IPPKSRASLKGYQWLKDKILSEEG  2.77
30. IPPGSRASLKGYQWLKDKILSEEG  2.76
31. IPPYSRAQLKGYQWLKDKILSEEG  2.72
32. ISPYSRASLKGYQWLKDKILSEEG  2.66
33. IPPYSRAPLKGYQWLKDKILSEEG  2.64
34. IRPYSRASLKGYQWLKDKILSEEG  2.62
35. IPPYSRASFKGYQWLKDKILSEEG  2.61
36. IPPYSRAALKGYQWLKDKILSEEG  2.6
37. IPPYSRQSLKGYQWLKDKILSEEG  2.58
38. IPPYSRGSLKGYQWLKDKILSEEG  2.58
39. IYPYSRASLKGYQWLKDKILSEEG  2.56
40. IPPYSRASAKGYQWLKDKILSEEG  2.56
41. IPPYSRASIKGYQWLKDKILSEEG  2.56
42. IPPYSRADLKGYQWLKDKILSEEG  2.53
43. IPPYSRANLKGYQWLKDKILSEEG  2.53
44. IPPYSRASKKGYQWLKDKILSEEG  2.53
45. IPPYSRASLAGYQWLKDKILSEEG  2.47
46. IPPYSRPSLKGYQWLKDKILSEEG  2.45
47. IPPYSRASDKGYQWLKDKILSEEG  2.44
48. IPPYSRASLNGYQWLKDKILSEEG  2.42
49. IPPYSRVSLKGYQWLKDKILSEEG  2.41
50. IPPYSRASLMGYQWLKDKILSEEG  2.4
51. IPPYSRASYKGYQWLKDKILSEEG  2.4
52. IPPYSRASHKGYQWLKDKILSEEG  2.38
53. IPPYSRASLLGYQWLKDKILSEEG  2.37
54. IPPRSRASLKGYQWLKDKILSEEG  2.35
55. IPPYSRASLWGYQWLKDKILSEEG  2.29
56. IPPISRASLKGYQWLKDKILSEEG  2.29
57. IPPYSRASQKGYQWLKDKILSEEG  2.28
58. IPPYSRATLKGYQWLKDKILSEEG  2.24
59. IPPYSRASMKGYQWLKDKILSEEG  2.24
60. IPPYSRFSLKGYQWLKDKILSEEG  2.23
61. IPPYSRTSLKGYQWLKDKILSEEG  2.23
62. IPPYSRNSLKGYQWLKDKILSEEG  2.22
63. IPPYSRASWKGYQWLKDKILSEEG  2.22
64. IPPYSRAFLKGYQWLKDKILSEEG  2.21
65. IPPYSRASLIGYQWLKDKILSEEG  2.2
66. IFPYSRASLKGYQWLKDKILSEEG  2.2
67. IPPYSRASLVGYQWLKDKILSEEG  2.14
68. ILPYSRASLKGYQWLKDKILSEEG  2.04
69. IKPYSRASLKGYQWLKDKILSEEG  2.02
70. IPPYSRAGLKGYQWLKDKILSEEG  1.96
71. IPPYSRRSLKGYQWLKDKILSEEG  1.95
72. IPPYSRISLKGYQWLKDKILSEEG  1.93
73. IHPYSRASLKGYQWLKDKILSEEG  1.92
74. IPPYSRAYLKGYQWLKDKILSEEG  1.9
75. IPPYSRKSLKGYQWLKDKILSEEG  1.9
76. ICPYSRASLKGYQWLKDKILSEEG  1.88
77. INPYSRASLKGYQWLKDKILSEEG  1.86
78. IPPYSRMSLKGYQWLKDKILSEEG  1.8
79. IPPYSRASCKGYQWLKDKILSEEG  1.77
80. IPPYSRASLCGYQWLKDKILSEEG  1.72
81. IDPYSRASLKGYQWLKDKILSEEG  1.7
82. IPPYSRASLRGYQWLKDKILSEEG  1.68
83. IPPYSRASLFGYQWLKDKILSEEG  1.67
84. ITPYSRASLKGYQWLKDKILSEEG  1.62
85. IPPCSRASLKGYQWLKDKILSEEG  1.6
86. IPPYSRCSLKGYQWLKDKILSEEG  1.59
87. IPPYSRAILKGYQWLKDKILSEEG  1.58
88. IAPYSRASLKGYQWLKDKILSEEG  1.52
89. IPPYSRYSLKGYQWLKDKILSEEG  1.46
90. IMPYSRASLKGYQWLKDKILSEEG  1.37
91. IPPLSRASLKGYQWLKDKILSEEG  1.34
92. IPPYSRAELKGYQWLKDKILSEEG  1.31
93. IIPYSRASLKGYQWLKDKILSEEG  1.25
94. IPPWSRASLKGYQWLKDKILSEEG  1.12
